We go through three molecules from patent US20190248902A1 (published 2019).

T1: Mouse ASGR-1 (mouse, UniProt P34927 1-284)
T1 construct: Expressed on HEK 293 cells or as membrane prep on beads; cDNA GenBank BC022106.1; also called muASGR-1; mASGR-1
T1 sequence: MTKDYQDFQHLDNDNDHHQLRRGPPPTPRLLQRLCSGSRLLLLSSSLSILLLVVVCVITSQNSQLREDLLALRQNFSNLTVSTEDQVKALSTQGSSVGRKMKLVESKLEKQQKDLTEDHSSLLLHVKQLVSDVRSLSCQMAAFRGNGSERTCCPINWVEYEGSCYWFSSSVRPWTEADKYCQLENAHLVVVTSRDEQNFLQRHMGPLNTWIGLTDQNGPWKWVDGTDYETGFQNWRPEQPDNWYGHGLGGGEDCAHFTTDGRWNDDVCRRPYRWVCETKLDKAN

B1: 4A2 (antibody, V domains shown)
VH: QVQLVQSGTEVKKPGASVKVSCKASGYTFTNYDINWVRQATGQGLEWMGWMHPNSGNTGYAQKFQGRVTLTRNTSISTAYMELSSLRSEDTAVYYCASSSGWYYFDYWGQGTLVTVSS
VL: DIVMTQSPDSLAVSLGERATINCKSSQSILHSSNNNNYLAWFQQKPGQPPKLLLYWASTRESGVPDRFSGSGSGTDFTLTISSLQPEDVAVYYCQQYYNTPVTFGPGTKVGIK
notes: Tested as hybridoma supernatant at normalized concentration
B2: 194A4 (antibody, V domains shown)
VH: QVQLVQSGTEVKKPGASLKVSCKASGYTFTVYYLNWVRQAPGQGLEWMGWINPNSGGTNYAQKFQGRVTMTRDTSISTAYMELSRLRSDDTAVYYCARGYDILTGWGQGTLVTVSS
VL: EIVLTQSPGTLSLSPGERATLSCRASRGVSNIYLAWYQQKPGQAPRLLIYGASNRATGIPDRFSGSGSGTDFTLTISRLEPEDFAVYYCQHNDYSMFTFGPGTKVDIK
notes: as for B1
B3: 56E5 (antibody, V domains shown)
VH: QVQLVQSGAEVKKPGASVKVSCQASGYTFTGYHMHWVRQAPGQGLEWMGWINPNNNATNYAQKFQGRVTMTRDTSISTAYMELRRLRSDDTAVYHCARDGTSSFDYWGQGTLVTVSS
VL: DIQMTQSPSSVSASVGDRVTITCRASQGIRKWLAWYQQKPGKAPKLLIYAASSLQSGVPSRFSGSGSGTDFTLTISSLQPEDFATYYCQQANSFPFTFGPGTKVDIK
notes: as for B1

The assay has as its target T1, Mouse ASGR-1. Nature of the assay: FACS on transfected HEK 293 cells or membrane preps on beads; binding = signal at least 2x irrelevant IgG. Put shortly:
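Antibodies at normalized concentrations bound 1 h at 4° C to HEK 293 cells expressing each antigen, then Alexa Fluor 647 anti-Fc plus 7-AAD 15 min at 4° C, flow cytometry; empty-vector cells as negative. Alternatively, species ASGR-1 membrane preps on streptavidin beads, antibody 1 h RT, Alexa Fluor 488 anti-Fc; FACS buffer with 1 mM CaCl2 throughout.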
As for B1, the binding result was “no binding”. As for B2, the binding result is recorded as “no binding”. In the case of B3, the binding result is “no binding”.
